Source: patent US20090124564A1 (YEDA RESEARCH AND DEVELOPMENT, published 2009)

Target: T1, mouse BCL-XL (mouse, UniProt Q64373 1-233)
T1 construct: whole, on cells; In mitochondria of FL5.12-BCL-XL cells
Assay: BSOCOES cross-linking in TNFα-treated FL5.12-BCL-XL cells, excised 45 kDa gel section, alkaline reversal, Western blots
Protocol: FIG. 16a-FL5.12-BCL-XL cells were induced for 5 hours in the presence TNFα/CHX (lanes 3 and 4) or were remained un-induced (lanes 1 and 2), following which mitochondria were prepared from the cells and were treated with the BSOCOES cross-linker (+) (lanes 2 and 4) or remained untreated (−) (lanes 1 and 3). At the end of the incubation, the membranes were lysed and were size-fractionated by SDS-PAGE and immunoblotted using anti-BID Abs. FIGS. 16b-d—The experiment presented in FIG. 16a was repeated and the gel sections corresponding to the position of the 45 kDa band in lanes 3 and 4 (FIG. 16a; marked by boxes) were excised, incubated in alkaline conditions, and later resolved as described in FIGS. 12a-c. Lane 1—excised gel band from lane 3 of the gel presented in FIG. 16a; lane 2—excised gel band from lane 4 of the gel presented in FIG. 16a. […] The asterisk marks cross-reactive substances that might have been released from the gel sections.
To assess whether this band represented a complex between tBID (15 kDa) and BCL-XL (30 kDa), the experiment was repeated and the gel sections corresponding to the position of the 45 kDa band in lanes 3 and 4 (marked by boxes in FIG. 16a) were excised, incubated in alkaline conditions, and later resolved as described in Example 7, hereinabove and in FIGS. 12a-c.

T1 sequence (Q64373 whole entry): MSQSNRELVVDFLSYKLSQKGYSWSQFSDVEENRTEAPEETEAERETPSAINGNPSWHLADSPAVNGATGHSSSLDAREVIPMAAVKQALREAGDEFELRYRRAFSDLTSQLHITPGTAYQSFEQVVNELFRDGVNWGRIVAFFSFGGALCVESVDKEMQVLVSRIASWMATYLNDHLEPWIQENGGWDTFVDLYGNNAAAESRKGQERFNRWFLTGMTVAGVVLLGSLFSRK

B1: tBID, endogenous, in TNFα/CHX-treated FL5.12 cells (other)
chain: GSQASRSFNQGRIEPDSESQEEIIHNIARHLAQIGDEMDHNIQPTLVRQLAAQFMNGSLSEEDKRNCLAKALDEVKTAFPRDMENDKAMLIMTMLLAKKVASHAPSLLRDVFHTTVNFINQNLFSYVRNLVRNEMD
notes: FL5.12 is a murine cell line; also called endogenous tBID
  binding result: binds
